From paper doi:10.1101/2020.05.28.119206

Target: recombinant medaka ZI-3 precursor (Y74-V420) (medaka)
Experiment: SEC-MALS

- stoichiometry N: 2
Substance: recombinant medaka ZI-3 precursor (Y74-V420) (domain or fragment)
